Measured values reported in article PMC10581170.

These sequences were tested against T1, CzcR (His6-CzcR) (Pseudomonas aeruginosa PAO1?) (UniProt Q9RLJ1) (assay: EMSA).
T1 sequence: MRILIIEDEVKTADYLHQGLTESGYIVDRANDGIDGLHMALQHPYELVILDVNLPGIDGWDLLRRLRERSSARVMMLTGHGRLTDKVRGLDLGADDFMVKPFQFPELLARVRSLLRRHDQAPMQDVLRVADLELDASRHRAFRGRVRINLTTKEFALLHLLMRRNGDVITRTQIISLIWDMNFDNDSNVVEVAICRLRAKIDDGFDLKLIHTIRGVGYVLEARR
In the case of “GAATCCACCTGAAACCCACGCCCAGCAAGGCCTATAGCACTAATCACAGACGCCCTTGACCTCAACTTAACTTGAGGTTTTATAGTCCCCGCTGCGGTCATACCGCCCCGTTTCCCCAGGACCACGAACCGCCCCCACGGCCGCTTCGCGGCGCCGGATGGCGACCAGCACAAGGAACGACCCATGCAGCGCTTC (double strand) [mexGHI-opmD promoter probe (PmexG)]”, the binding is reported as “binds”. “GATAACCGGCCATCGAGCTAAAACGTTTCAGGTGTTTTCACGCGAGGCTTTCGGACGTTTACAAACACCTATGAATGTAAGTATTTTGCCTGCCTTCTTCGAGCCGGTGCAGCGCCTTCACGCTGCATCGGCCGCTTTCGCTCATGAGGACAACGCTATGCAACGAAC (double strand) [mexAB-oprM promoter probe (PmexA)]” was tested, and the binding was “binds”. In the case of “GCAACCGTTCGGAACATTCTTCCCGTCGGGGGTAGGCGAGCGACTTGCCCTGTGGAATAATACTGTCTACTTATACAGTTGTTCGTGGCCGTCCGGCCGCCCTGACTTCGCGAGGACTTCAATGGA (double strand) [recA promoter fragment (PrecA)]”, the binding is reported as “no binding”.
